Source: patent publication US5733879A, “Peptides and proteins, process for their preparation and their use as cholesterol acceptors” (N.V. Innogenetics, S.A., priority 1992, dated 1998)
Entries after “also recorded” stand apart in the source; their conditions may differ. Where no end group is shown, it is not given here.

Assays:
[1] = Turbidity decrease at 325 nm on complex formation with DMPC vesicles (lipid binding); settings: from turbidity decrease with DMPC vesicles, 15-25° C.
Description: FIG. 1 represents the turbidity decrease (on the y-axis, expressed as E/Eo, with E being the turbidity measured at different temperature points and Eo being the turbidity measured at 15° C.) at 325 nm upon the formation of complexes with DMPC vesicles as a function of the temperature (°C.), (x-axis) and on which:
The formation of small discoidal particles between DMPC vesicles and the peptides was monitored by measuring the turbidity decrease at 325 nm as a function of temperature. […] The turbidity decrease initiated by the peptide-lipid association started already at 17° C., below the DMPC transition temperature and stabilized around 23° C. The turbidity decrease enables to determine the binding affinity of lipids to the peptides of the invention. M 1 has a strong lipid binding capacity while 18A and M4 have quite similar lipid binding affinity. The lipid binding of M3 is low compared with the other peptides.

[2] = Percentage of alpha-helix structure by circular dichroism; format: physicochemical; settings: for percentage of alpha-helix structure, peptide, CD: free peptide; for percentage of alpha-helix structure, DMPC/peptide, CD: phospholipid-peptide (DMPC) complex
Description: Table 1: corresponds to the percentage of alpha-helix structure in the free peptide and in the phospholipid-peptide (DMPC) complexes as determined by infrared spectroscopy (IR) and circular dichroism (CD).
Circular dichroism spectra of the peptides and their complexes with lipids were measured on a Jasco 600 spectropolarimeter at 23° C. (Brasscur et at., 1991). Measurements were carried out at a protein concentration of 0.1 mg/ml in a 0.01M sodium phosphate buffer pH 7.4. Nine spectra were collected and averaged for each sample. The secondary structure was estimated according to the generalized inverse method of Compton and Johnson (Compton et at., 1986).

[3] = molecular target: T1, semi-purified LCAT enzyme (Homo sapiens, UniProt P04180); assay: LCAT activation properties of the phospholipid-peptide complexes (HPLC of cholesteryl esters); format: biochemical; settings: for Vmax compared with other complexes / apo AI-phospholipid complexes: Lineweaver-Burk plots; for Vmax (LCAT activation): PLPC/cholesterol/peptide discoidal complex as substrate, apparent kinetic constant, 37° C.; for kinetics of cholesterol esterification by LCAT (time course): discoidal complexes with PLPC and cholesterol, 0-24 h; for Vmax/Km A % of apo A1 (LCAT activation): relative to apo AI-phospholipid complex = 100
T1 construct: corresponds to the concentration relative to that in plasma by a factor of 5100, with the major contaminant being albumin; from tissue
T1 sequence (P04180 25-440): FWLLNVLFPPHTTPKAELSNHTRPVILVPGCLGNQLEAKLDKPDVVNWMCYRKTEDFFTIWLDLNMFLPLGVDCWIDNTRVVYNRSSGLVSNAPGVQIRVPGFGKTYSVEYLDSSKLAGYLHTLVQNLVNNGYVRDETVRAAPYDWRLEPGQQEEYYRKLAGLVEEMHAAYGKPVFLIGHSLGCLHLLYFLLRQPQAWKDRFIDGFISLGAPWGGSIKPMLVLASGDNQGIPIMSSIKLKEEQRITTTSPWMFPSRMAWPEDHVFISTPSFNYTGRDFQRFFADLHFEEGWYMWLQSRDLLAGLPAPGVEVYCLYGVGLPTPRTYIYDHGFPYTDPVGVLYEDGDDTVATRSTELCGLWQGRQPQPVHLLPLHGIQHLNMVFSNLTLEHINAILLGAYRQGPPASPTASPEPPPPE
Description: The activity of the LCAT enzyme with the various peptide-lipid complexes as substrates was determined by measuring the mount of cholesteryl esters generated during the enzymatic reaction by HPLC (Vercaemst et al., 1989).
The assay mixture consisted of variable mounts of complexes at cholesterol concentrations varying between 5 and 100 μM, 5 mg defatted bovine serum albumin (Sigma), 6 mM beta-mercaptoethanol in a reaction volume of 0.2 ml. After a preincubation of 20 min at 37° C., the enzymatic reaction was initiated by adding 3-6 μl of the semi-purified LCAT enzyme. The reaction was followed at 37° C. and was stopped by extraction of the incubation mixture with hexane-isopropanol 3:2, v/v. The solvent mixture contained either cholesteryl heptadecanoate (Sigma) or beta-sitosterol (Sigma) as internal standards for respectively cholesteryl esters and unesterified cholesterol quantification.
The unesterified cholesterol and the cholesteryl esters are identified and quantified by isocratic HPLC on a reversed-phase Zorbax ODS column, eluted with acetonitrile-isopropanol at a ratio of 90:10 v/v for unesterified cholesterol and of 50:50 v/v for cholesteryl esters. Detection was performed by measuring the UV absorbance at 205-210 nm. At a column temperature of 50° C. and with a flow-rate of 1.2 ml/min, the separation is completed within 25 min (Vercaemst et al., 1989). The sensitivity of this HPLC technique is similar to that of the conventional radioactive assay for polyunsaturated lecithin substrates (50 ng), and is about twice as low for saturated lecithins (80 ng).
The time course of cholesterol esterification by the LCAT enzyme with discoidal substrates consisting of PLPC, cholesterol, and the synthetic peptides, was followed between 0 and 24 h (Jonas, 1987). For the determination of the kinetic parameters, the initial velocities were determined in the linear portion of the curves, i.e. between 0-30% cholesteryl esters formation. The sample concentrations were in the range of 5×10^-7 to 5×10^-6 M with a constant enzyme volume of 5 μl, so that a linear production of cholesteryl esters formation was measured within 10 min at 37° C.
The initial kinetics (Vo) as a function of the apoprotein or peptide (C) concentrations were analyzed using a Lineweaver-Burk plot of 1/Vo versus 1/C. Linear regression analysis yielded the apparent kinetic parameters: Vmax, Km and Vmax/Km for each apoprotein or peptide-lipid complex. All kinetic experiments were performed at least three times and Vmax and Km values were expressed as mean ±error on the intercept and slope of the regression line.
The kinetics of the reaction of the semi-purified LCAT enzyme with discoidal complexes generated between the peptides, PLPC and cholesterol as substrate were followed between 0 and 24 h, and compared with those of the apo AI/PLPC/cholesterol complexes. The expression "semi-purified" corresponds to the concentration relative to that in plasma by a factor of 5100, with the major contaminant being albumin. The time course of the reaction, expressed as the percentage of esterified cholesterol as compared with the original substrate is shown on FIGS. 5a, 5b and 6 and in Table 2. […] After 24 h, more than 90% of the initial cholesterol present in all substrates was converted into cholesteryl esters (FIG. 5a).

[4] = GdmCl denaturation followed by Trp maximal emission wavelength; format: physicochemical; settings: free peptide or protein

Substance	lipid binding capacity / affinity [1]	percentage of alpha-helix structure, peptide, CD [2] [%]	percentage of alpha-helix structure, DMPC/peptide, CD [2] [%]	Vmax compared with other complexes / apo AI-phospholipid complexes [3]	Vmax (LCAT activation) [3] [nmol CE/h]	kinetics of cholesterol esterification by LCAT (time course) [3]	midpoint of the GdmCl denaturation transition, free peptide [4]	Vmax/Km A % of apo A1 (LCAT activation) [3] [%]	time at which plateau of esterification was reached ([3]; saturable kinetics) [h]
EWLEAFYKKVLEKLKELF [M4]	quite similar	50	65	two to three times lower	1.53	fastest kinetics	around 0.1 M		
EWLKAEYEKVEEKLKELF [M3]	low			considerably lower	0.33	low rate of cholesterol esterification	around 0.1 M	10.7	
EWLKAEYEKVLEKLKELF [M2]		30	46		0.33	low rate of cholesterol esterification	immediately	3.3	
EWLKAFYKKVLEKLKELF [M1]	strong	20	46	two to three times lower; also recorded: considerably lower	2.41	fastest kinetics	around 0.3 M	15.4	
apo AI: native plasma apo AI purified from human plasma; major apoprotein constituent of HDL		29	47		5.89	fastest kinetics	1.3 M	100.0	2 to 4
